Source: the supplement of paper PMC9170038

System: K4 kissing-loop RNA reporter
Test: apparent KD of K4 kissing-loop reporter; higher = weaker reporter binding
Details: Eterna round: R107
Experimental: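 RNA-MaP round R107: designed RNA switches with theophylline, tryptophan, arginine or FMN aptamers are transcribed on-chip within common flanks. They are titrated with a labelled K4 kissing-loop RNA reporter in RNA-MaP buffer (100 mM Tris pH 7.5, 80 mM KCl, 4 mM MgCl2), without ligand or with the indicated ligand. Median apparent KD per design.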

[1] = input ligand: theophylline 20 uM
[2] = input ligand: tryptophan 2.4 mM
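Note: bound reporter read as fluorescence of individual clusters on recovered sequencing chips by microscopy, with normalized cluster intensities fitted with a binding model.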

Row | Sequence | apparent KD of K4 kissing-loop reporter (input ligand: FMN 200 uM) | apparent KD of K4 kissing-loop reporter (input ligand: arginine 13.2 mM) | apparent KD of K4 kissing-loop reporter (input ligand: none) | apparent KD of K4 kissing-loop reporter [1] | apparent KD of K4 kissing-loop reporter [2]
1 | GUUACGCAUGGAAGGAGCGCUCUCCGGCUUAAUAACACAGUGAUGUUGUGAAUUUGCCGAAAGCAGGUAGGUCGCCAUGUGUAAC [Ex Arginine B K4 10] | 474 nM | 359 nM | 453 nM | 435 nM | 413 nM
2 | GUUUGGCUCCGAAGACGGCAGUGGGAAAUAUAGGAUAUCUAGAAAUAGAGAAGGAUACUAGUGAUGUUAGUAUCGGAUAAAACAA | 85.9 nM | 76.3 nM | 73 nM | 83.7 nM | 79.8 nM
3 | GUUUUAUAGGAGGAUACCAGUACAAAUAAAGUGCAUUAAUAGUAGAGUGAUGUUCUAAAGUACCCUUGGCAGCUUAGUUUAAGUU [#26 K4 Theophylline B Exclusion] | 151 nM | 278 nM | 185 nM | 357 nM | 100 nM
4 | UAACGGCCCAGUGAUGUUGGGUGGAGGCGGCGAGGACCGGUACGGCCGCCACUCGGCGCACAGGCGGAGUGAUGUUGCGCGUAAA [Same State Tryptophan A GF 13] | 242 nM | 164 nM | 319 nM | 182 nM | 215 nM
5 | UAACUGAAGUGAUGUUUCAGUUCGUCGGAUACCAGUGCCGAUCAUCACCCUUGGCAGCCGUAAUAUUACUUAACAAUGACAGGUU [theeternabot_exclusion_KL_Theo_A_7] | 122 nM | 107 nM | 118 nM | 119 nM | 108 nM
6 | UAAGUGAUUCACAAGCUAGAGUUACUCGAAGGAGCGACGAAUUCGUCAGGUAGGUCGCGAGUGAUGUUCGCAUGCUCUAGCAAAU [AK1 Exc Arginine A] | 655 nM | 681 nM | 704 nM | 689 nM | 650 nM
7 | UACAAACGUAGUGAUGUUACGUACUCUGAUACCAGACAAGUGUAAGUCCCUUGGCAGCAGUCAUUUUGCUUAUUAUUUUCUCAAA [JR_ExcTheophyA_Sub019] | 70.1 nM | 88.1 nM | 74.1 nM | 86.4 nM | 68.1 nM
8 | UACUAGUGAAACUAGUAGGUGCUAGGUGAAGGAGCGAUCGAAAGAUCAGGUAGGUCGCACCUUCCUGAGUGAUGUUCAGGUAAUA [KL-SSArg-A3] | 47.2 nM | 29.6 nM | 44.5 nM | 59.1 nM | 40.9 nM
9 | UAGCAUUUGCUCGAGUGAUGUUCGAGCGAAGGAGCGCGAGAAAUCGCAGGUAGGUCGCGCUCGAACUAUGAGCGAUCAUUUAUUA [Arg A Ex t2c] | 284 nM | 217 nM | 244 nM | 463 nM | 370 nM
10 | UAUAGAGUGACGGCCGCCACUAUUGUGAUUUAAUUGUUAGAGUGAUGUUUUGAUGUUUGAUUUUGUAGGACCGGGUUAUAUGUUA [wwwzmullin] | 1090 nM | 720 nM | 890 nM | 795 nM | 718 nM
11 | UAUCAGAUUACUGAUACCAGUCUAAAGACAGUGAUGUUGUCUGAUCGACCACGAUCAAAGGACCCUUGGCAGCAGUAUACUAUUC [Theo B SS t5] | 163 nM | 157 nM | 157 nM | 164 nM | 158 nM
12 | UAUCCUCGCUGAAGGAGCGAGCAUGAAGCAGUGAUGUUCCGAGCGAGUGAUGUUCGCAUAGCUCAGGUAGGUCGCAGUGGGAUUU [Same State Arginie B GF 17] | 795 nM | 749 nM | 1030 nM | 517 nM | 530 nM
13 | UAUCUAUGCUCGGCCGCCACUAGGACCGGGAGGUAACUAGUGAUGUUAGUAUCUUCGGCCGCCACUAGGACCGGGAGUGUAGAUA [KL-SSTryp-B17 #DoubleAptamer] | 115 nM | 95.2 nM | 92.7 nM | 95.5 nM | 74.6 nM
14 | UAUCUUUGCUGAAGGAGCGAGCAUGUUGGAGUGAUGUUCCGUGCGAGUGAUGUUCGCAUAGCUCAGGUAGGUCGCAGUGGGAGGA [KL-SSArg B29] | 120 nM | 94.7 nM | 105 nM | 157 nM | 86.2 nM
15 | UAUUGAGUGAUGUUCGAUAACCAAUCAGAUACCAGUUUUGUAGAAAACCCUUGGCAGCUGCUCAGCUCUAUAAUGCUUCGCCCUU [theeternabot_sameState_KL_Theo_A_18] | 199 nM | 169 nM | 208 nM | 184 nM | 177 nM
16 | UAUUGAUUGUCAGGAUAUCGUAAACGAGUGAUGUUCGUAUAUUGACGAUAGUCAAUUCUAUCUGAACGAGAAGGGACAUUAUUUA [JR_SSFMNB_Sub009] | 318 nM | 301 nM | 389 nM | 351 nM | 308 nM
17 | UAUUUAAAUAAAAUAAAAUAAAUUGCUGAUACCAGAGUCAAUUGACUCCCUUGGCAGCGGAUCGAGUGAUGUUCGUAAAAUUUAU [AK2.1 SS Theophylline A] | 27.4 nM | 57.7 nM | 30.8 nM | 58.5 nM | 31.9 nM
18 | UCACUACACUGAAGGAGCGUGAGGAGACUAGUGAUGUUGGUCAGAUUCUAUGAUCGUAACUCACAGGUAGGUCGCAGUGUAGUGU [Arg B SS t7] | 514 nM | 341 nM | 518 nM | 378 nM | 476 nM
19 | UCAUGAGAGACGGCCGCCACUGAAGCAGCUCUGUAAGAGCUGCAACAGUAGAGUGAUGUUCUGCGCAGGACCGGGUCGUCAUGAA [KL-SSTryp-B9] | 513 nM | 206 nM | 398 nM | 352 nM | 450 nM
20 | UCCUAGGUCUUCAGGCGAAAGCCCUGCGAAGGAGCGUGCGAAAGCACAGGUAGGUCGCGCAGUGAUGUUGCACCUAGGUAAUAAA [#SwitchBubble 21 #K4Late] | 843 nM | 111 nM | 268 nM | 115 nM | 140 nM
21 | UCCUGCAAUCGACCACGAAAGUGGAUUGAUACCAGAGUCGAAAGACUCCCUUGGCAGCGAGUGAUGUUCGAAGCAGGUAAAUAAA | 626 nM | 455 nM | 539 nM | 457 nM | 426 nM

Row | Sequence | apparent KD of K4 kissing-loop reporter (input ligand: FMN 200 uM) | apparent KD of K4 kissing-loop reporter (input ligand: arginine 13.2 mM) | apparent KD of K4 kissing-loop reporter (input ligand: none) | apparent KD of K4 kissing-loop reporter [1] | apparent KD of K4 kissing-loop reporter [2]
22 | UCCUGUUGUCAGCCACGAAAGUGGAUUGAUACCAGAGUCGAAAGACUCCCUUGGCAGCGAGUGAUGUUCGCAGCAGGUAAAUAAA [MatMod 4 - Jieux - Exclusion - Theophylline A] | 211 nM | 157 nM | 209 nM | 207 nM | 178 nM
23 | UCGAACGAUGGAAGGAGCGCUCGUCAGCCCUGCGAGUGAUGUUCGUGGGUAAAUAGUCGCGAGCAGGUAGGUCGCCAUCUUGAGC [Zainsotima] | 123 nM | 101 nM | 129 nM | 119 nM | 124 nM
24 | UCGGACCCUGGAGGAUAUGAGUCGAGUGAUGUUCGGCGGUCCAUGCCGGUGCGGCGUUAUGCCCUUUUAGAAGGCCAGGGUCCGA [#2 Exclusion - FMN B Attempt #11 (HarryS)] | 277 nM | 159 nM | 196 nM | 207 nM | 212 nM
25 | UCGGGAGGCCGAAGGAGCGCCGCCAGUGAUGUUGGGAGUUAGAUACCAGUGAUGUUGGGCCGGCAGGUAGGUCGCGGCCGCGGAU [Exclusion Arginine B Gf 18] | 201 nM | 106 nM | 147 nM | 168 nM | 153 nM
26 | UCGUCCGGAUUACUCGUGGUCAUGGUCGAUACCAGUAGAUUAAUCUACCCUUGGCAGCGACAUGAGUGAUGUUCAUGUGCAAUGA [KL-XTheo-A6 #analogue] | 383 nM | 341 nM | 360 nM | 492 nM | 383 nM
27 | UCUUUACCGGGAAGGAGCGUGAAUGAGAAUGGAUAUAGUGAUGUUAUGUAUACGAACGAAUCGCAGGUAGGUCGCCCGGAUCCCU [SSArgB.aB] | 1150 nM | 316 nM | 643 nM | 685 nM | 485 nM
28 | UGACAUUGCUCAGAUACCAGACAUGAGCAUCAGCCAUGUGCCAAAUACGUACAAAUAAAUGUCCCUUGGCAGCUGAGCAAUGUCU [TheoBX 12] | 66.7 nM | 30.7 nM | 37.5 nM | 80 nM | 44.4 nM
29 | UGACAUUGCUCAGAUACCAGACCUGAGGAUCACCCAGGUGCCAAAACGUACUAAAUAAAGGUCCCUUGGCAGCUGAGCAAUGUCU [TheoBX 13] | 63.6 nM | 38.9 nM | 27.3 nM | 101 nM | 65.4 nM
30 | UGACAUUGCUCAGAUACCAGUCAUGAGGAUCACCCAUGGGCCAAAACGUACUAAAUAAAUGACCCUUGGCAGCUGAGCAAUGUCU [TheoBX 13] | 116 nM | 36.9 nM | 37.7 nM | 165 nM | 72 nM
31 | UGACGUAAAACCGUCGAAUCGCUGUGAGAAGGAGCGGUAAAAUUGCCAGGUAGGUCGCUCACAGCCUCACAGUGAUGUUGUGGGA [Sovetequ] | 468 nM | 104 nM | 246 nM | 199 nM | 162 nM
32 | UGACUACAAAGGAAAUAAUCCUAGUGAUGUUAGGAUAUGCUGAUAAGCAGAAGGAACUGAGAUCGAAAGAUCUCAAAUGUAGUCU [FmnAX 26 Mat Inspired #SwitchBubble #StaticStem #K4Early] | 131 nM | 90.1 nM | 84.9 nM | 96.6 nM | 88.2 nM
33 | UGACUGGACUGAAGGAGCGAGCGAGACAAAGUCUCGAAAUCCUAGUGAUGUUAGGAAAUAACUCAGGUAGGUCGCAGUCUAGUCU [ArgBS 9 #SwitchBubble #StaticStem] | 181 nM | 152 nM | 175 nM | 170 nM | 173 nM
34 | UGACUGGACUGAAGGAGCGCGCGAGACAAAGUCUCGAACUUCUAGUGAUGUUAGAAAAUAACGCAGGUAGGUCGCAGUCUAGUCU | 165 nM | 137 nM | 152 nM | 147 nM | 147 nM
35 | UGACUGGACUGAAGGAGCGCUAAAACUCCUAGUGAUGUUGGGAAAUAAGAGACAAAGUCUCAGCAGGUAGGUCGCAGUCUAGUCU [ArgBS 24 #SwitchBubble #StaticStem] | 481 nM | 462 nM | 503 nM | 657 nM | 526 nM
36 | UGACUGGACUGAAGGAGCGCUGAAGGAGCGUAAGUAGUGAUGUUGCUUACAGGUAGGUCGCAGCAGGUAGGUCGCAGUCUAGUCU | 45.3 nM | 37.1 nM | 56.6 nM | 44.3 nM | 43.7 nM
37 | UGACUGGAUGGAAGGAGCGCUAAACUCCUAGUGAUGUUAGGGAUACGAGACAAAGUCUUGAGGCAGGUAGGUCGCCAUCUAGUCU [FiskerMod 11 - Jieux - Same State - Arginine B] | 162 nM | 130 nM | 147 nM | 157 nM | 138 nM
38 | UGACUGGAUUGAAGGAGCGCUAAACUCCUAGUGAUGUUAGGGACACAAGACAAAGUCUUGAGGCAGGUAGGUCGCAAUCUAGUCU [FiskerMod 5 - Jieux - Same State - Arginine B] | 345 nM | 253 nM | 288 nM | 310 nM | 265 nM
39 | UGACUUGCCUGAGGAUAUCUAGGAUAUCCAUAAAAGAAAAUAAUAAUCCAGUGAUGUUGGAGAAGGAGAGAAGGCAGGUAAGUCU [KL-XFMN-B17 #DoubleAptamer #SwitchBubble] | 176 nM | 114 nM | 119 nM | 112 nM | 119 nM
40 | UGAGGAGAAUAUGAUACCAGCAGAGAGAGAGAGGAAGUAUAGUGAUGUUAUAUGAGAGAAUGCCCUUGGCAGCAUAAGAAGAAGG [SSTheophylB.B] | 148 nM | 121 nM | 142 nM | 129 nM | 125 nM
41 | UGAGUUAGACAAAAGUCUAGCUCUGGUGAAGGAGCGUCCGAAAGGACAGGUAGGUCGCACCACCUGAGUGAUGUUCAGAAUCCUU [KL-SSArg-A22] | 670 nM | 506 nM | 789 nM | 762 nM | 468 nM
42 | UGAUACCAGACGGCCGCCACUCCCGUAAGUCAAAGACUUACGAAGAAGGUUUUUUAGUGAUGUUGGAGGACCGGGUCUGGUAUCU [FiskerMod 19 - Jieux - Exclusion - Tryptophan B] | 258 nM | 188 nM | 210 nM | 302 nM | 1100 nM
